The values below come from patent publication WO2021228904A1 (dated 2021).

The labels stand for the following.
B1: SEQ ID NOs: 337/341 (HCVR/LCVR) (antibody, V domains shown)
VH: QVQLVQSGAEVKKPGATVKISCKVSGYTFTDYYMHWVQQAPGKGLEWMGLVDPEDGETIYAEKFQGRVTITADTSTDTAYMELSSLRSEDTAVYYCASSDSSGFVGSRGFDYWGQGTRVTVSS
VL: DIQLTQSPSSLSASVGDRVTITCRASQGIRNDLGWYQQKPGKAPKRLIYAASSLQSGVPSRFSGSGSGTEFTLTISSLQPEDFATYYCLQHNSYPPLFGQGTKVEIK
B2: SEQ ID NOs: 405/409 (HCVR/LCVR) (antibody, V domains shown)
VH: EVQLVESGAEVKKPGASVKVSCKVSGYTLPELSMHWVRQTPGKGLEWMGGFDPEDGETIYAQKFQGRVTMTEDTSTDTAYMELSSLRSEDTAVYYCATGPTIAAAATNWFDPGGQGTLVTVSS
VL: QPVLTQPASVSGSPGQSITISCTGTSSDVGGYNYVSWYQQHPGKAPKLMIYDVSNRPSGVSNRFSGSRSGDTASLTISGLQAEDEADYYCSSYTSSSTWVFGGGTKLTVL
B3: SEQ ID NOs: 525/529 (HCVR/LCVR) (antibody, V domains shown)
VH: QVQLQESGPGLVKPSGTLSLTCAVSGGSISSSNWWSWVRQPPGKGLEWIGEIYHSGSSNYNPSLKSRVTISVDKSKNQFSLKLNSVTAADTAVYYCAGRYCSGGRCGWFDPWGQGTLVTVSS
VL: QSVLTQPASVSGSPGQSITISCTGTSSDVGSYNLVSWYQQHPGKAPKLMIYEASKRPSGISNRFSGSKSGNTASLTISGLQAEDEADYYCCSYAGSSTWVFGGGTKPTVL
B4: SEQ ID NOs: 41/45 (HCVR/LCVR) (antibody, V domains shown)
V domain 1: EVQLVQSGGGLVQPGRSLRLSCAASGFTFGEYAMHWVRQAPGKGLEWVSGISWNSGSIDYADSVKGRFTISRDNAKNSLYLQMNSLRAEDTALYYCAKDMGEAVAGTHYGMDVWGQGTMVTASS
V domain 2: QSALTQPPSVSVSPGQTASIPCSGDKLGDIYACWYQQKPGQSPVLVIYQDTKRPSGIPERFSGSNSGNTATLTISGTQAMDEADYYCQAWGSTTAKVFGGGTKLTVP
B5: SEQ ID NOs: 353/357 (HCVR/LCVR) (antibody, V domains shown)
VH: EVQLVQSGAEVKKPGSSVKVSCKASGGTFSSYAISWVRQAPGQGLEWMGGIIPIFGTTNYAQKFQGRVTITTDESTSTAYMELSSLRSEDTAVYYCARVYSYDSSGYYLEYWGQGTRVTVSS
VL: EIVLTQSPATLSLSPGERATLSCRASQSVSSYLAWYQQKPGQAPRLLIYDASNRATGIPARFSGSGSGTDFTLTISSLEPEDFAVYYCQQRSNWPPSITFGQGTRLEIK
B6: SEQ ID NOs: 653/657 (HCVR/LCVR) (antibody, V domains shown)
VH: EVQLVESGGGLVQPGRSLRLSCAASGFTFDDYAMHWVRQAPGKGLEWVSGISWNSGSIGYADSVKGRFTISRDNAKNSLYLQMNSLRAEDTALYYCAKMGPDPAHDYGRKNDAFDIWGQGTMVTVSS
VL: DIVMTQSPSSLSASVGDRVTITCRASQSMSSYLNWYQQKPGKAPKLLIYAASSLQSGVPSRFSGSGSGTDFTLTISSLQPEDFATYYCQQSYSTLTFGGGTKLEIK
B7: SEQ ID NOs: 509/513 (HCVR/LCVR) (antibody, V domains shown)
VH: QVQLQQSGPGLVKPSETLPLTCTVSGGSISSSSYYWGWIRQPPGKGLEWIGSVFYSGSTYYNPSLKSRVTISVDTSKNQLSLKLSSVTAADTAVYYCARQVRQWLEDDAFDIWGQGTMVTVSS
VL: DIQLTQSPSSLSASVGDRVTITCRASQGIRNDLGWYQQKPGKAPKRLIYAASSLQSGVPSRFSGSGSGTEFTLTISSLQPEDFATYYCLQHNSYPLTFGGGTKVDIK
B8: SEQ ID NOs: 549/553 (HCVR/LCVR) (antibody, V domains shown)
VH: QVQLVQPGAEVKKPGASVKVSCKASGYTFTSYGISWVRQAPGQGLEWMGWISAYNGDTNYAQKLQGRVTMTTDTSTSTAYMELRSLKSDDTAVYYCARFDYGYPYSSWSVLSIDYWGQGTLVTVSS
VL: DIVMTQSPSSLSASVGDRVTITCRASQGIRNDLGWYQQKPGKAPKRLIYAASSLQSGVPSRFSGSGSGTEFTLTISSLQPEDFATYYCLQHNSYPLTFGGGTKLEIK
B9: SEQ ID NOs: 621/625 (HCVR/LCVR) (antibody, V domains shown)
VH: QVQLVQSGAEVKKPGASVKVSCKVSGYTLTELSMHWVRQAPGKGLEWMGGFDPEDGETIYAQKFQGRVTMTEDTSTDTAYMELSSLRSEDTAVYYCATAYSVDTAMVRGVGYWGQGTLVTVSS
VL: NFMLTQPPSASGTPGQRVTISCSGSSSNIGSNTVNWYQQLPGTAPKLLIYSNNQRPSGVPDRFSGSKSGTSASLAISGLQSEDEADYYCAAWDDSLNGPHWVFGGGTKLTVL
B10: SEQ ID NOs: 477/481 (HCVR/LCVR) (antibody, V domains shown)
VH: QVQLVESGGGVVQPGRSLRLSCAASGFTFSSYAMHWVRQAPGKGLEWVAVISYDGSNKYYADSVKGRFTISRDNSKNTLYLQMNSLRAEDTAVYYCARSASGSYYGAFDYWGQGTLVTVSS
VL: QTVVTQPASVSGSPGQSITISCTGTSSDVGGYNYVSWYQQHPGKAPKLMIYDVSNRPSGVSNRFSGSKSGNTASLTISGLQAEDEADYYCSSYTSSSTLGLYVFGTGTKVTVL
B11: 001_P1G11 (antibody, V domains shown)
VH: EVQLVQSGTEVKKPGASVKVSCKASGYTFPGYYIHWVRQAPGQGLEWMGWINPNSGVAKSAQKFQGRVTMTRDSSISTVYLDVTSDDTAVYYCARDLVWATVSGTMDVWGQGTTVTVSS
VL: QSALTQPPSASGSPGQSVTISCTGTSSDIGTYNYVSWYQQHPGKAPKLMIYEVTKRPSGVPDRFSGSKSGNTASLTVSGLQADDEGDYYCSSYVGNNNWVFGGGTKLTVL
B12: SEQ ID NOs: 305/309 (HCVR/LCVR) (antibody, V domains shown)
VH: EVQLVESGGGLVKPGGSLRLSCAASGFTFGSYSMSWVRQAPGKGLEWVSSISRSSSYIYNADSVRGRLTISRDNAKNSLYLQMNSLRVEDTAVYYCARDQPLPDILTGYYTGPLDYWGQGTLVTVSS
VL: not shown
B13: SEQ ID NOs: 57/61 (HCVR/LCVR) (antibody, V domains shown)
VH: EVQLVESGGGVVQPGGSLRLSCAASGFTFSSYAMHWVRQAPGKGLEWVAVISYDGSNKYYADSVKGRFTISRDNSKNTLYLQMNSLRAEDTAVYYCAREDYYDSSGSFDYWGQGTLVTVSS
VL: QSVLTQPASVSGSPGQSITISCTGTSSDVGGYNYVSWYQQHPGKAPKLMIYDVSNRPSGVSNRFSGSKSGNTASLTISGLQAEDEADYYCSSYTSSSTRHWVFGGGTKLTVL
B14: SEQ ID NOs: 637/641 (HCVR/LCVR) (antibody, V domains shown)
VH: QVQLVESGGGLVQPGRSLRLSCAASGFTFDDYAMHWVRQAPGKGLEWVSGISWNSGSIGYADSVKGRFTISRDNAKNSLYLQMNSLRAEDTALYYCAKAEPEVGGYDYYMDVWGKGTMVTVSS
VL: not shown
B15: SEQ ID NOs: 65/69 (HCVR/LCVR) (antibody, V domains shown)
VH: QLQLVESGPGLVKPSETLSLTCTVSGGSISSYFWSWIRQPPGKGLEWIGYIYYSGSTNYNPSLKSRVTISVDTSKNQFSLKLSSVTAADTAVYYCARHSQGWLQQAVAFDIWGQGTMVTVSS
VL: not shown
B16: 002_P2C4 (antibody, V domains shown)
VH: QVQLVESGAEVKKPGSSVKVSCKASGGTFSSYGINWVRQAPGQGLEWMGGIIPIFGTANYAQKFQGRVTITTDESTSTAYMELSSLRSEDTAVYYCASFGDDSGDEGVRWGQGTLVTVSS
VL: EIVMTQSPATLSLSPGERATLSCRASQSVSSYLAWYQQKPGQAPRLLIYDASNRATGIPARFSGSGSGTDFTLTISSLEPEDFAVYYCQQRSNWPPYTFGQGTKVEIK
B17: SEQ ID NOs: 581/585 (HCVR/LCVR) (antibody, V domains shown)
VH: EVQLVESGGGLVQPGRSLRLSCAASGFTFDDYAMHWVRQAPGKGLEWVSGISWNSGSIGYADSVKGRFTISRDSAKNSLYLQMNSLRAEDTALYYCAKVATYYYDRSGYYYGGALDYWGQGTLVTVSS
VL: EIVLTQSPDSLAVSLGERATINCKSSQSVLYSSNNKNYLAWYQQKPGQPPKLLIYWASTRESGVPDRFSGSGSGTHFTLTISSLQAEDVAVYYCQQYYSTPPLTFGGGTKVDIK

One experiment concerns the target T1, stabilized prefusion SARS-CoV-2 S ectodomain (SARS-CoV-2 (Wuhan-Hu-1), UniProt P0DTC2 15-1138). Description: SPR. Background: Surface plasmon resonance follows binding to a sensor surface in real time, without labels.
In turn, B1 came in with a Kd of at most 1 nM.
The molecule B2 yielded a Kd of at most 1 nM.

Another experiment addresses T1, stabilized prefusion SARS-CoV-2 S …. Description: not named there; ELISA in Example 4. On the technique in general: ELISA stands for enzyme-linked immunosorbent assay.
Consider B3, for which the binding result was “binds”.
On the same count and under the same terms, the same measure for B4: “binds”.
Same read-out and setting: the same measure for B5: “binds”; for B6: “binds”; for B7: “binds”.
Still for that read-out and setting: the same measure for B8: “binds”.
Regarding B9, the binding result is reported as “binds”.
As for B10, the binding result is reported as “binds”.
With B11, the binding result was “binds”.
As for B12, the binding result is reported as “binds”.
The same measure, in the same setting: the same measure for B13: “binds”; for B14: “binds”.
As for B15, the binding result was “binds”.
Same read-out and setting: the result for B16 reads “binds”; that for B17, “binds”.

As a reminder, the Kd is the equilibrium constant for the complex coming apart. Higher therefore signals a looser complex.
